Test: soluble on expression in E. coli; label from the status in PepcDB or PDB records
In the case of “ILDTKPIPTIVDATTLGISGNTSGDYWLPTTMSLYQKELTDQIVSLHYSDILRYFETSHYKEDVILESMKTMCLNGSLVATHPYLLIDHYMPKSLITRDVPAHLAENSGKFSVLRDLINLVQEYETETAIVCRPGRTMDLLEALLLGNKVHIKRYDGHSIKSAAAANDFSCTVHLFSSEGINFTKYPIKSKARFDMLICLDTTVDTSQKDIQYLLQYKRERKGLERYAPIVRLVAINSIDHCRLFFGKKFDKNSREYLENVTAAMVILRDRLGTLPPDLRPIYSQKLHYLVEWLENPTVPWPLPDIYPLKQYTSMDVERSLLTEVHFK”, the “soluble on expression in E. coli” value is reported as “soluble”.
For “NNESSLIEQAPIPQDGLTVAPHRAQREAVHIEKIMLKGVQRKRADKYWEYTFKVNWSDLSVTTVTKTHQELQEFLLKLPKELSSETFDKTILRALNQGSLKREERRHPDLEPILRQLFSSSSQAFLQSQKVHSFFQSISSDSLHSINNLQSSLKTSKILEHLKEDSSEASSQEEDVLQHAIIHKKHTGKSPIVNNIGTSCSPLDGLTMQYSEQNGIVDWRKQSCTTIQHPEHCVTSADQHSAEKRSLSSINKKKGKPQTEKEKIKKTDNRLNSRINGIRLSTPQHAHGGTVKDVNLDIGSGHDTCGETSSESYSSPSSPRHDGRESFESEEEKDRDTDSNSEDSGNPSTTRFTGYGSVNQTVTVKPPVQIASLGNENGNLLEDPLNSPKYQHISFMPTLHCVMHNGAQKSEVVVPAPKPADGKTIGMLVPSPVAISAIRESANSTPVGILGPTACTGESEKHLELLASPLPIPSTFLPHSSTPALHLTVQRLKLPPPQGSSESCTVNIPQQPPGSLSIASPNTAFIPIHNPGSFPGSPVATTDPITKSASQVVGLNQMVPQIEGNTGTVPQPTNVKVVLPAAGLSAAQPPASYPLPGSPLAAGVLPSQNSSVLSTAATSPQPASAGISQAQATVPPAVPTHTPGPAPSPSPALTHSTAQSDSTSYISAVGNTNANGTVVPPQQMGSGPCGSCGRRCSCGTNGNLQLNSYYYPNPMPGPMYRVPSFFTLPSICNGSYLNQAHQSNGNQLPFFLPQTPYANGLVHDPVMGSQANYGMQQMAGFGRFYPVYPAPNVVANTSGSGPKKNGNVSCYNCGVSGHYAQDCKQSSMEANQQGTYRLRYAPPLPPSNDTLDSAD”, the “soluble on expression in E. coli” value was “soluble”.
With “MSLKAIIYCRVSTEKTSQETSLARQKHELLTLANKHALEVVATLEERASGFSLDRPVLLECIDAFQRGQADILLCQDDTRLARGHSKIALLHQLRKLGVSIYTIRDQGELRLSEADEMVLDIVAIVEEYQRKLHNKKIKRGMKQAVKNGYRPERNIKQGVSGGRERKELPIKEIVRLRQKNLTFHEIALTLQGLGFNVSKATVHRRYQEYMDEQLHGEGHHHHHH” the “soluble on expression in E. coli” value was “soluble”.
In the case of “MRTLKELERELQPRQHLWYFEYYTGNNVGLFMKMNRVIYSGQSDIQRIDIFENPDLGVVFALDGITMTTEKDEFMYHEMLAHVPMFLHPNPKKVLIIGGGDGGTLREVLKHDSVEKAILCEVDGLVIEAARKYLKQTSCGFDDPRAEIVIANGAEYVRKFKNEFDVIIIDSTDPTAGQGGHLFTEEFYQACYDALKEDGVFSAETEDPFYDIGWFKLAYRRISKVFPITRVYLGFMTTYPSGMWSYTFASKGIDPIKDFDPEKVRKFNKELKYYNEEVHVASFALPNFVKKELGLM”, the “soluble on expression in E. coli” value is reported as “soluble”.
In the case of “NLLEEESAVLGQAVTNLMLSGDNVNNKNIILSLIHSLETTSDILKADVIRKTLEIVLRYTADDM”, the “soluble on expression in E. coli” value is reported as “soluble”.
In the case of “SMALYRVVLLGDPGVGKTSLASLFAGKQERDLHEQLGEDVYERTLTVDGEDTTLVVVDTWEAEKLDKSWSQESCLQGGSAYVIVYSIADRGSFESASELRIQLRRTHQADHVPIILVGNKADLARCREVSVEEGRACAVVFDCKFIETSATLQHNVAELFEGVVRQLRLRRRDSA”, the “soluble on expression in E. coli” value is reported as “soluble”.
In the case of “MNIRDLEYLVALAEHRHFRRAADSCHVSQPTLSGQIRKLEDELGVMLLERTSRKVLFTQAGMLLVDQARTVLREVKVLKEMASQQGETMSGPLHIGLIPTVGPYLLPHIIPMLHQTFPKLEMYLHEAQTHQLLAQLDSGKLDCVILALVKESEAFIEVPLFDEPMLLAIYEDHPWANRECVPMADLAGEKLLMLEDGHCLRDQAMGFCFEAGADEDTHFRATSLETLRNMVAAGSGITLLPALAVPPERKRDGVVYLPCIKPEPRRTIGLVYRPGSPLRSRYEQLAEAIRARMDGHFDKVLKQAV”, the “soluble on expression in E. coli” value is reported as “soluble”.
For “MEKSLETVPGLDLSGEDIEMYYQYVRFVDRFLRFNRNYQIEYFKLSYPGDGSSEREVDLLKRWIDTVIQLKVKDLDFFDYSWEWGFDNFQLPSTIYICESLVSLKLSTVTLPSVKSVSLPFLRVLKLGAVKFADHLDLETLISGCTALETLAIRFFDRVQVLQVSSQSLLSFTHVAPKLVFTHAVRKPLAEKDLSIVIDAPRLEYLKLSDHQTSSFIIKNPGSLVAVDIDINLSSGFDSRNMIRDFLVGISSVKNMTISSIILKFYDYRFKMLPTFLEICPNLKSLILKSTEELGIKESSMFSGPQDFLPSLEYVEMKMPLKKGLLLEIRMLVGYFLEKATILKKLTLCLDDYRKRKESLIPRILAIPRISTSCEVVVL”, the “soluble on expression in E. coli” value was “soluble”.
For “MGSDKIHHHHHHMNTIYNTLRTDKGYKVYEGYLYEITGEECEEALDLVIPKNIVFADTDTCGYTFLLNEDGTVYDDVTFYKFDDKYWLASHKALDSYLDNINFDYTVTDISDEYKMLQIEGRYSGEIAQSFYEYDISTLNFRTLIEMTYKGEKGYLARFGFSGEFGYQFFLPSSIFATFVSDVCEGIAEYGDELDRYLRFEVGQPITDIYQQEEYSLYEIGYSWNLDFTKEEFRGRDSLLEHIRSATVKSVGFSTKEKLASGTPVLFDDQIVGKIFWIADEKDSSENYLGLMIVNQTYAHSGVTFVTEDGQILKTQSSPYCIPESWNKE”, the “soluble on expression in E. coli” value was “not soluble”.
With “HHHHHHAIAENLYFQSGRYRIRVATGAWLFSGSYNRVQLWLVGTRGEAELELQLRPARGEEEEFDHDVAEDLGLLQFVRLRKHHWLVDDAWFCDRITVQGPGACAEVAFPCYRWVQGEDILSLPEGTARLPGDNALDMFQKHREKELKDRQQIYCWATWKEGLPLTIAADRKDDLPPNMRFHEEKRLDFEWTLKAGALEMALKRVYTLLSSWNCLEDFDQIFWGQKSALAEKVRQCWQDDELFSYQFLNGANPMLLRRSTSLPSRLVLPSGMEELQAQLEKELQNGSLFEADFILLDGIPANVIRGEKQYLAAPLVMLKMEPNGKLQPMVIQIQPPSPSSPTPTLFLPSDPPLAWLLAKSWVRNSDFQLHEIQYHLLNTHLVAEVIAVATMRCLPGLHPIFKFLIPHIRYTMEINTRARTQLISDGGIFDKAVSTGGGGHVQLLRRAAAQLTYCSLCPPDDLADRGLLGLPGALYAHDALRLWEIIARYVEGIVHLFYQRDDIVKGDPELQAWCREITEVGLCQAQDRGFPVSFQSQSQLCHFLTMCVFTCTAQHAAINQGQLDWYAWVPNAPCTMRMPPPTTKEDVTMATVMGSLPDVRQACLQMAISWHLSRRQPDMVPLGHHKEKYFSGPKPKAVLNQFRTDLEKLEKEITARNEQLDWPYEYLKPSCIENSVTI” the “soluble on expression in E. coli” value was “soluble”.
For “ESEPQPEPCPGRAGAAARARWCPQPRPLVLLSLGALEFVSLSQQAFQICPVFVVCGLYQDGNSNKSFLLRSWCLHPEGTVCASSPERKDLPEALGNDPGTPGQRGLKLFGKAAGLLGKMAMAPSPSLVQVYTSPAAVAVWEWQDGLGTWHPYSATVCSFIEQQFVQQKGQRFGLGSLAHSIPLGQADPSLAPYIIDLPSWTQFRQDTGTMRAVRRHLFPQHSAPGRGVVWEWLSDDGSWTAYEASVCDYLEQQVARGNQLVDLAPLGYNYTVNYTTHTQTNKTSSFCRSVRRQAGPPYPVTTIIAPPGHTGVACSCHQCLSGSRTGPVSGRYRHSMTNLPAYPVPQHPPHRTASVFGTHQAFAPYNKPSLSGARSAPRLNTTNAWGAAPPSLGSQPLYRSSLSHLGPQHLPPGSSTSGAVSASLPSGPSSSPGSVPATVPMQMPKPSRVQQALAGMTSVLMSAIGLPVCLSRAPQPTSPPASRLASKSHGSVKRLRKMSVKEATPKPEPEPEQVIKNYTEELKVPPDEVCVLGPWLPLFLFGNNSTWKGHPPHLA”, the “soluble on expression in E. coli” value was “soluble”.
In the case of “MSFEEFTPLNEKSLVDYIKSTPALSSKIGADKSDDDLVIKEVGDGNLNFVFIVVGSSGSLVIKQALPYIRCIGESWPMTKERAYFEATTLRKHGNLSPDHVPEVYHFDRTMALIGMRYLEPPHIILRKGLIAGIEYPFLADHMSDYMAKTLFFTSLLYHDTTEHRRAVTEFCGNVELCRLTEQVVFSDPYRVSTFNRWTSPYLDDDAKAVREDSALKLEIAELKSMFCERAQALIHGDLHTGSVMVTQDSTQVIDPEFSFYGPMGFDIGAYLGNLILAFFAQDGHATQENDRKEYKQWILRTIEQTWNLFNKRFIALWDQNKDGPGEAYLADIYNNTEVLKFVQENYMRNLLHDSLGFGAAKMIRRIVGVAHVEDFESIEEDKRRAICERSALEFAKMLLKERRKFKSIGEVVSAIQQQS”, the “soluble on expression in E. coli” value is reported as “soluble”.
For “GSSAKRKQEEKHLKMLRDMTGLPHNRKCFDCDQRGPTYVNMTVGSFVCTSCSGSLRGLNPPHRVKSISMTTFTQQEIEFLQKHGNEVCKQIWLGLFDDRSSAIPDFRDPQKVKEFLQEKYEKKRWYVPPEQAKVVASVHA”, the “soluble on expression in E. coli” value was “soluble”.
For “GHVSDRPAGRMPLTVHRNVGRWLSEILHASIRDTGVSSRIEFVRRTLHGWVREEYSETELPNAVYRNLYFPVLDAQPAHAGSGKIETISECDRLKNLVRNVTDTLVENYPQGLESEALLIALDGVKLELARIRKDIEMYGDPRKR”, the “soluble on expression in E. coli” value was “soluble”.
With “NAVHFGAGNIGRGFIGKLLADAEVEVTFADVDVPLVDQLSHKQEYKVKVVGTECKIDTVTHVTAVNSASEDVIDRIVKTDLVTTAVGPNVLDIIAKTIAKGIAKRFEAGNDAPLNIIACENMVRGTTHLKGEVYKHLDKSLHAKADELVGFVDSAVDRIVPPAEAANDDPLEVTVESFSEWIVDEQQFKGDIPNIAGMEKTNN” the “soluble on expression in E. coli” value was “soluble”.
With “MGSDKIHHHHHHMSSDPTSGAAITVEGLKKVFRIYERPRDRILQLILPGKRKFYREFQALDDVSFTVQKGQAVGIIGRNGSGKSTLLQMICGILHPTAGKVSCSGRVAALLELGAGFNPDFTGRENVYMNATLLGLTTAAVDERMDDILAFAEIGDFIDHPVKTYSSGMFVRLAFAVMAHVDAEILIIDEALAVGDAAFGQKCMRFLRRFRETGTILFVSHDTAAVIGLCDRAVWLDRGKMIIEGDAKTVCEAYYGHLFGGTVETPPEKTVEAITPSPAPEGPRPKVRAEDWVDGRREWINHSSLRNDIEVFTFDPSGTDFGAGGAEIEDVRLTDDDGHPYAWIVGGEPTRLRVTVRVRDELRSPIIGFFVKDRLGQTLFGDNTFMNEKKLSKPALPGQILEANFRFPMPILPPGTYSIAVAVADGTQTDHVQHHWLHDAVMVKSHVSHATAGLVGIPMFEVRFECHDPVASPSSSMDKVGIVD” the “soluble on expression in E. coli” value was “not soluble”.
For “MSLNIMDFNVKKLAADAGTFLSRAVQFTEEKLGQAEKTELDAHLENLLSKAECTKIWTEKIMKQTEVLLQPNPNARIEEFVYEKLDRKAPSRINNPELLGQYMIDAGTEFGPGTAYGNALIKCGETQKRIGTADRELIQTSALNFLTPLRNFIEGDYKTIAKERKLLQNKRLDLDAAKTRLKKAKAAETKSSSEQELRITQSEFDRQAEITRLLLEGISSTHAHHLRCLNDFVEAQMTYYAQCYQYMLDLQKQLGSFPSNYLSNNNQTSGTPVPYALSNAIGPSAQASTGSLVITCPSNLNDLKESSNNRKARVLYDYDAANSTELSLLADEVITVFSVVGMDSDWLMGERGNQKGKVPITYLELLNEGHHHHHH”, the “soluble on expression in E. coli” value was “soluble”.
In the case of “LVPRGSAMGISNDSSRGANRTIVVTTILESPYVMYKKNHEQLEGNERYEGYCVDLAYEIAKHVRIKYKLSIVGDGKYGARDPETKIWNGMVGELVYGRADIAVAPLTITLVREEVIDFSKPFMSLGISIMIKKGTPIESAEDLAKQTEIAYGTLDSGSTKEFFRRSKIAVYEKMWSYMKSAEPSVFTKTTADGVARVRKSKGKFAFLLESTMNEYIEQRKPCDTMKVGGNLDSKGYGVATPKGSALGTPVNLAVLKLSEQGILDKLKNKWWYDKGECG”, the “soluble on expression in E. coli” value is reported as “soluble”.
